Measured values reported in US20100221748A1.

Molecular target: T1, RB-C fusion protein (residues 701-928) (UniProt P06400)
T1 sequence: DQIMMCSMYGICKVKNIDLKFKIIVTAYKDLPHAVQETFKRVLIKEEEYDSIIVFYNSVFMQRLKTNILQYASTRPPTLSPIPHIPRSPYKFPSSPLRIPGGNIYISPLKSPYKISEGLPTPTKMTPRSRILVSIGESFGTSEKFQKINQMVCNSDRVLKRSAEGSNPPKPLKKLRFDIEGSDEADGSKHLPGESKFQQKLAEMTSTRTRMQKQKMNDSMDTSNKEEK

AMPK holoenzyme (α/β/γ heterotrimers)
nonradioactive in vitro kinase assay; phosphorylation monitored by immunoblot using phospho-Rb800/804 antibody: AMPK directly phosphorylated Rb at Ser804 and that this modification could be inhibited by the AMPK inhibitor, compound C
